According to US20240294622A1 (SUZHOU TRANSCENTA THERAPEUTICS, published 2024):

T1: HGREM1-His (ACRO) (human, UniProt O60565 25-184)
T1 construct: Lys25-Asp184 of NP_037504 with C-terminal polyhistidine tag (ACRO GR1-H52H3); they are put here; also called hGREM1 (ACRO); human gremlin (ACRO)
T1 sequence: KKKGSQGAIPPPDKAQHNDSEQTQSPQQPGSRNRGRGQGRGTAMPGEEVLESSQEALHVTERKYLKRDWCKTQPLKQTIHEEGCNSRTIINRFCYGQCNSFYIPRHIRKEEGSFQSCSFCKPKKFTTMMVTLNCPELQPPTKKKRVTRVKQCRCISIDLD

T2: Mouse Gremlin-His (R&D) (mouse, UniProt O70326 25-184)
T2 construct: Lys25-Asp184 with 10xHis, R&D 956-GR; also called mouse gremlin (R&D); mGREM1
T2 sequence: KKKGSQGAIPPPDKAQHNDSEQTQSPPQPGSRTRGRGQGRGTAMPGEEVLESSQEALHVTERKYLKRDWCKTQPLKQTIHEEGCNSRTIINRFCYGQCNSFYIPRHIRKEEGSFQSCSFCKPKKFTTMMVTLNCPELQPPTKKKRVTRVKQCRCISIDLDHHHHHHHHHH


What was measured:
HGREM1-His (ACRO) [1] = biological target: T1, HGREM1-His (ACRO); assay: ELISA on coated Gremlin-his (column Gremlin)
Experimental: Binding affinities to hGREM1 and XM5 were also compared. Briefly, XM5-Fc or Gremlin-his […] was coated. 100 μl of block solution consisting of PBS+1% BSA+1% normal goat serum+0.5% Tween 20 (Sigma) was added to each well and incubated at room temperature for 2 hours. 4-fold serial antibody dilution from 2 μg/ml were added. Afterward the plates were washed three times with 200 ul of PBS+0.1% Tween20 followed by adding 100 μl/well 1:10000 Goat anti mouse IgG-HRP (abeam), and incubate for 1 hour at room temperature. They were then washed 3× with PBS+0.1% Tween20. Finally, 100 μl/well of TMB (InnoReagents) was added to each well and after 2 minutes add 50 ul of stop solution to each well. The plates were read on a Multiscan FC microplate reader (Thermo Scientific) at […]. The EC50 values were show in table below.

HGREM1-His (ACRO) [2] = biological target: T1, HGREM1-His (ACRO); assay: blocking ELISA, Human Gremlin-1 binding to BMP2; column OD450
Experimental: (§1) In addition, the ability of serial dilutions of antibodies provided herein to block Gremlin binding to human BMP2/4/7 was also examined via ELISA. Plates were coated with recombinant human BMP2/4/7 (0.5 μg/ml) overnight and then serial dilutions of antibodies were incubated with 1 μg/ml of human Gremlin-his modified for 1 h at RT before this complex was added to coated plates and allowed to incubate for an additional hour at RT. The plates were then washed and added with anti-his HRP (GenScript). Plates were then developed with a TMB solution and stopped by adding stop solution. The plates were read on a plate reader at 450 nm. […] The chimeric anti-gremlin 1 antibodies (69H5-chi) and chimeric anti-gremlin 1 antibodies (22F1-chi) also can inhibit the binding of gremlin to BMP2 and BMP4 (see, FIG. 3E and FIG. 3F). The chimeric anti-gremlin 1 antibodies (56C11-chi) can inhibit the binding of gremlin to BMP2 (see, FIG. 3E).

HGREM1-His (ACRO) [3] = biological target: T1, HGREM1-His (ACRO); assay: blocking ELISA, Human Gremlin-1 binding to BMP7; column OD450
Experimental: as §1

HGREM1-His (ACRO) [4] = biological target: T1, HGREM1-His (ACRO); assay: blocking ELISA, Human Gremlin-1 binding to BMP4; column Percentage
Experimental: as §1

HGREM1-His (ACRO) [5] = biological target: T1, HGREM1-His (ACRO); assay: blocking ELISA, Human Gremlin-1 binding to BMP2; column Percentage
Experimental: as §1

Mouse Gremlin-His (R&D) = biological target: T2, Mouse Gremlin-His (R&D); assay: ELISA on coated Mouse Gremlin-his, anti-mouse IgG-HRP
Experimental: Clear polystyrene plates (BEAVER) were coated with 100 μl/well of a […] hGREM1 (ACRO) and mouse gremlin (R&D) in high pH coating buffer overnight at 4° C. Then the plates were washed once on an automatic plate washer using PBS+0.1% Tween 20 (Sigma). 100 μl of block solution consisting of PBS+1% BSA+1% normal goat serum+0.5% Tween 20 (Sigma) was added to each well and incubated at room temperature for 2 hours. Then 100 μl of antibodies in antibody dilution buffer containing PBS+1% BSA+1% normal goat serum+0.01% Tween 20 starting from 2 μg/ml and then serial dilutions were added to each well of the plate and incubated for 1 hours at room temperature. Afterward the plates were washed three times with 200 μl of PBS+0.1% Tween20 followed by adding 100 μl/well 1:10000 Goat anti mouse IgG-HRP (abcam), and incubate for 1 hour at room temperature. They were then washed 3× with PBS+0.1% Tween20. Finally, 100 µl/well of TMB (Pierce) was added to each well and after several minutes add 50 μl of stop solution to each well. The plates were read on a Multiscan FC microplate reader (Thermo Scientific) at […].

HGREM1-His (ACRO) [6] = biological target: T1, HGREM1-His (ACRO); assay: ELISA on coated hGREM1 (Example 5: ACRO; sheet title: DAN Family,R&D,0.5ug/ml), anti-mouse IgG-HRP
Experimental: In addition, the specificity of the binding of 14E3 and a benchmark antibody was assessed with ELISA. Briefly, clear polystyrene plates (BEAVER) were coated with 100 μl/well of a […] hGREM1 (ACRO), or human gremlin-2 (R&D), human COCO (R&D) and human DAN protein (R&D) in high pH coating buffer overnight at 4° C. Then the plates were washed once on an automatic plate washer using PBS+0.1% Tween 20 (Sigma). 100 μl of block solution consisting of PBS+1% BSA+1% normal goat serum+0.5% Tween 20 (Sigma) was added to each well and incubated at room temperature for 2 hours. Then 100 ul of antibodies in antibody dilution buffer containing PBS+1% BSA+1% normal goat serum+0.01% Tween 20 starting from 2 μg/ml and then 5 fold serial dilution were added to each well of the plate and incubated for 1 hours at room temperature. Afterward the plates were washed three times with 200 ul of PBS+0.1% Tween20 followed by adding 100 μl/well 1:10000 Goat anti mouse IgG-HRP (Abcam), and incubate for 1 hour at room temperature. They were then washed 3× with PBS+0.1% Tween20. Finally, 100 µl/well of TMB (Pierce) was added to each well and after 5 minutes add 50 ul of stop solution to each well. The plates were read on a Multiscan FC microplate reader (Thermo Scientific) at […].

EC50 (HGREM1-His (ACRO) [1]) [µg/mL]	IC50 (HGREM1-His (ACRO) [2]) [µg/mL]	IC50 (HGREM1-His (ACRO) [3]) [µg/mL]	IC50 (HGREM1-His (ACRO) [4]) [µg/mL]	IC50 (HGREM1-His (ACRO) [5]) [µg/mL]	binding result (Mouse Gremlin-His (R&D))	EC50 (read off the curve) (HGREM1-His (ACRO) [6]) [µg/mL]	Binder
0.0147	0.604	0.683	0.512	0.604			36F5 (antibody, V domains shown, mouse hybridoma antibody; also called hybridoma 36F5) VH: QVQLQQSGAELARPGASVKLSCKASGYSFTSSGIGWVKQRSGQGLEWIGEIYPRSGNTYNNEKFKGKATLTADKSSSTVYMELRSLTSEDSAVYFCVREAYSHHYYAMDYWGQGTSVTVFS VL: DVLMTQTPLSLPVSLGGQASISCRSSQSLLHSNGNTYLEWYLQKPGQSPKLLIYKVSNRFSGVPDRLSGSGSGTDFTLKISRVEAEDLGVYYCFQGSHVPFTFGSGTKLEIN
					no binding	~0.01	14E3 (antibody, V domains shown, mouse hybridoma antibody; also called hybridoma 14E3; anti-gremlin1 antibody 14E3) VH: QIQLVQSGPELKKPGETVKISCKTSGSTFTTYGMAWMKQAPGKGLTWMGWINTLSGEPTYADDFKGRFAFSLKTSANTAYLQINNLKNEDAATYFCAREPMDYWGQGTSVIVSS VL: not shown
